The values below come from patent publication US20140271457A1 (AbbVie / Abbott, published 2014).

To fix the notation:
B1: DVD2717 (bispecific antibody, IgG1)
VH: EVQLVESGGGLVQPGGSLRLSCAASGFTFSNYGVTWVRQAPGKGLEWVSMIWADGSTHYASSVKGRFTISRDNSKNTLYLQMNSLRAEDTAVYYCAREWQHGPVAYWGQGTLVTVSSASTKGPSVFPLAPEVQLVESGGGLVQPGGSLRLSCAASGFSLTNNNVNWVRQAPGKGLEWVGGVWAGGATDYNSALKSRFTISRDNSKNTAYLQMNSLRAEDTAVYYCARDGGYSSSTLYAMDAWGQGTLVTVSS
VL: DIQMTQSPSSLSASVGDRVTITCRASQLVSSAVAWYQQKPGKAPKLLIYWASARHTGVPSRFSGSGSGTDFTLTISSLQPEDFATYYCQQHYKTPFTFGQGTKLEIKRTVAAPDIQMTQSPSSLSASVGDRVTITCRASEDIYNALAWYQQKPGKAPKLLIYNTDTLHTGVPSRFSGSGSGTDYTLTISSLQPEDFATYFCQHYFHYPRTFGQGTKVEIKR
B2: DVD2764 (bispecific antibody, IgG1)
VH: EVQLVESGGGLVQPGGSLRLSCAASGFTFSNYGVEWVRQAPGKGLEWVSGIWADGSTHYADTVKSRFTISRDNSKNTLYLQMNSLRAEDTAVYYCAREWQHGPVAYWGQGTLVTVSSASTKGPEVQLVESGGGLVQPGGSLRLSCAASGFSLTNNNVNWVRQAPGKGLEWVGGVWAGGATDYNSALKSRFTISRDNSKNTAYLQMNSLRAEDTAVYYCARDGGYSSSTLYAMDAWGQGTLVTVSS
VL: B1 VL with R24K, A53T, R54L, K93R
B3: DVD2767 (bispecific antibody, IgG1)
VH: B1 VH with T35E, M50G, S61D, S62T, G65S
VL: B1 VL with R24K, A53T, R54L, K93R
B4: DVD2763 (bispecific antibody, IgG1)
VH: EVQLVESGGGLVQPGGSLRLSCAASGFTFSNYGVEWVRQAPGKGLEWVSGIWADGSTHYADTVKSRFTISRDNSKNTLYLQMNSLRAEDTAVYYCAREWQHGPVAYWGQGTLVTVSSGGGGSGGGGSEVQLVESGGGLVQPGGSLRLSCAASGFSLTNNNVNWVRQAPGKGLEWVGGVWAGGATDYNSALKSRFTISRDNSKNTAYLQMNSLRAEDTAVYYCARDGGYSSSTLYAMDAWGQGTLVTVSS
VL: DIQMTQSPSSLSASVGDRVTITCKASQLVSSAVAWYQQKPGKAPKLLIYWASTLHTGVPSRFSGSGSGTDFTLTISSLQPEDFATYYCQQHYRTPFTFGQGTKLEIKRGGSGGGGSGDIQMTQSPSSLSASVGDRVTITCRASEDIYNALAWYQQKPGKAPKLLIYNTDTLHTGVPSRFSGSGSGTDYTLTISSLQPEDFATYFCQHYFHYPRTFGQGTKVEIKR
B5: DVD2719 (bispecific antibody, IgG1)
VH: EVQLVESGGGLVQPGGSLRLSCAASGFSLTNNNVNWVRQAPGKGLEWVGGVWAGGATDYNSALKSRFTISRDNSKNTAYLQMNSLRAEDTAVYYCARDGGYSSSTLYAMDAWGQGTLVTVSSASTKGPEVQLVESGGGLVQPGGSLRLSCAASGFTFSNYGVTWVRQAPGKGLEWVSMIWADGSTHYASSVKGRFTISRDNSKNTLYLQMNSLRAEDTAVYYCAREWQHGPVAYWGQGTLVTVSS
VL: DIQMTQSPSSLSASVGDRVTITCRASEDIYNALAWYQQKPGKAPKLLIYNTDTLHTGVPSRFSGSGSGTDYTLTISSLQPEDFATYFCQHYFHYPRTFGQGTKVEIKRTVAAPDIQMTQSPSSLSASVGDRVTITCRASQLVSSAVAWYQQKPGKAPKLLIYWASARHTGVPSRFSGSGSGTDFTLTISSLQPEDFATYYCQQHYKTPFTFGQGTKLEIKR
B6: DVD2722 (bispecific antibody, IgG1)
VH: EVQLVESGGGLVQPGGSLRLSCAASGFSLTNNNVNWVRQAPGKGLEWVGGVWAGGATDYNSALKSRFTISRDNSKNTAYLQMNSLRAEDTAVYYCARDGGYSSSTLYAMDAWGQGTLVTVSSASTKGPSVFPLAPEVQLVESGGGLVQPGGSLRLSCAASGFTFSNYGVTWVRQAPGKGLEWVSMIWADGSTHYASSVKGRFTISRDNSKNTLYLQMNSLRAEDTAVYYCAREWQHGPVAYWGQGTLVTVSS
VL: B5 VL
B7: DVD2721 (bispecific antibody, IgG1)
VH: B5 VH
VL: DIQMTQSPSSLSASVGDRVTITCRASEDIYNALAWYQQKPGKAPKLLIYNTDTLHTGVPSRFSGSGSGTDYTLTISSLQPEDFATYFCQHYFHYPRTFGQGTKVEIKRTVAAPSVFIFPPDIQMTQSPSSLSASVGDRVTITCRASQLVSSAVAWYQQKPGKAPKLLIYWASARHTGVPSRFSGSGSGTDFTLTISSLQPEDFATYYCQQHYKTPFTFGQGTKLEIKR
B8: DVD2718 (bispecific antibody, IgG1)
VH: EVQLVESGGGLVQPGGSLRLSCAASGFSLTNNNVNWVRQAPGKGLEWVGGVWAGGATDYNSALKSRFTISRDNSKNTAYLQMNSLRAEDTAVYYCARDGGYSSSTLYAMDAWGQGTLVTVSSGGGGSGGGGSEVQLVESGGGLVQPGGSLRLSCAASGFTFSNYGVTWVRQAPGKGLEWVSMIWADGSTHYASSVKGRFTISRDNSKNTLYLQMNSLRAEDTAVYYCAREWQHGPVAYWGQGTLVTVSS
VL: DIQMTQSPSSLSASVGDRVTITCRASEDIYNALAWYQQKPGKAPKLLIYNTDTLHTGVPSRFSGSGSGTDYTLTISSLQPEDFATYFCQHYFHYPRTFGQGTKVEIKRGGSGGGGSGDIQMTQSPSSLSASVGDRVTITCRASQLVSSAVAWYQQKPGKAPKLLIYWASARHTGVPSRFSGSGSGTDFTLTISSLQPEDFATYYCQQHYKTPFTFGQGTKLEIKR

Positions count from the first letter of the chain named.

In the first assay the target is Recombinant Human β-NGF (human, UniProt P01138 122-241). The assay is described as follows: cell-based or functional assay.
Sequence of Recombinant Human β-NGF (P01138 122-241 limits assumed): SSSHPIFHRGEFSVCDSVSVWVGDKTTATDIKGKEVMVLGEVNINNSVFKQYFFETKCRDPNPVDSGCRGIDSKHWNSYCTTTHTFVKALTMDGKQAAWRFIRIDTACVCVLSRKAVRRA
B1: the “C-Terminal VD NGF Neutralization Assay IC50” value was found to be 0.936 nM.

As for B2, the “C-Terminal VD NGF Neutralization Assay IC50” value was 4.1 nM.

B3: the “C-Terminal VD NGF Neutralization Assay IC50” value was 0.646 nM.

Regarding B4, the “C-Terminal VD NGF Neutralization Assay IC50” value came out at 0.871 nM.

As to B5, the “N-Terminal VD NGF Neutralization Assay IC50” value was 0.019 nM.

For B6, the “N-Terminal VD NGF Neutralization Assay IC50” value stood at 0.053 nM.

In the case of B7, the “N-Terminal VD NGF Neutralization Assay IC50” value was 0.041 nM.

B8: the “N-Terminal VD NGF Neutralization Assay IC50” value worked out at 0.008 nM.

In another assay the target is Recombinant Human TNF-α/TNFSF1A (human, UniProt P01375 77-233). The assay is described as follows: cell-based or functional assay.
Sequence of Recombinant Human TNF-α/TNFSF1A (P01375 77-233 limits assumed): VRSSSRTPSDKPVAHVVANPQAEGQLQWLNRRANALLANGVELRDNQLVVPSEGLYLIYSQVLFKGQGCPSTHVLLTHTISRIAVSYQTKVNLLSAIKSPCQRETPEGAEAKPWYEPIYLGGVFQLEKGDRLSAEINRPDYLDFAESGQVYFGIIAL
As to B1, the “N-Terminal VD huTNFα Neutralization Assay IC50” value stood at 0.278 nM.

With B2, the “N-Terminal VD huTNFα Neutralization Assay IC50” value was 0.012 nM.

B3: the “N-Terminal VD huTNFα Neutralization Assay IC50” value was 0.01 nM.

Regarding B4, the “N-Terminal VD huTNFα Neutralization Assay IC50” value stood at 0.004 nM.

On to B5, for which the “C-Terminal VD huTNFα Neutralization Assay IC50” value came to 0.126 nM.

In the case of B6, the “C-Terminal VD huTNFα Neutralization Assay IC50” value was 0.19 nM.

For the molecule B7, the “C-Terminal VD huTNFα Neutralization Assay IC50” value is 0.029 nM.

For B8, the “C-Terminal VD huTNFα Neutralization Assay IC50” value is 0.249 nM.
